Key:
HLA-A*32:01 = experiment: IEDB peptide-MHC binding, purified MHC/competitive/radioactivity; filed as Kd, often an IC50 or EC50 that approximates it; ≥ and ≤ were set here for values at or beyond the usual limits of such assays
HLA-B*40:02 = experiment: as above
HLA-B*44:02 = experiment: as above
HLA-B*45:01 = experiment: as above
HLA-B*18:01 [1] = experiment: as above
HLA-B*40:01 [2] = experiment: as above
HLA-B*44:03 = experiment: as above
HLA-A*26:01 = experiment: as above
HLA-A*29:02 = experiment: as above
HLA-A*01:01 = experiment: as above
HLA-A*30:02 = experiment: as above
HLA-A*23:01 = experiment: as above; conditions: source organism: SARS coronavirus Tor2
HLA-A*24:02 = experiment: as above; conditions: source organism: SARS coronavirus Tor2
HLA-A*30:01 = experiment: as above; conditions: source organism: Mammarenavirus guanaritoense
HLA-B*15:01 = experiment: as above; conditions: source organism: Vaccinia virus WR
HLA-B*18:01 [3] = experiment: IEDB peptide-MHC binding, purified MHC/direct/fluorescence; filed as Kd, often an IC50 or EC50 that approximates it; ≥ and ≤ were set here for values at or beyond the usual limits of such assays; conditions: source organism: Entamoeba histolytica HM-1:IMSS
HLA-B*40:01 [4] = experiment: as above; conditions: source organism: Entamoeba histolytica HM-1:IMSS
[5] = source organism: Vaccinia virus WR
[6] = source organism: Lymphocytic choriomeningitis virus (strain Armstrong)
[7] = source organism: Dengue virus 3 Martinique/1243/1999
[8] = source organism: SARS coronavirus Tor2
[9] = source organism: Mammarenavirus guanaritoense
[10] = source organism: Dengue virus 4 Philippines/H241/1956

Sequence: KSAHFLLIF
- Kd (HLA-A*32:01; [5]): 0.185 nM

Sequence: LDVLCLSSL
- Kd (HLA-B*40:02; [6]): 43.4 nM
- Kd (HLA-B*44:02; [6]): 7760 nM
- Kd (HLA-B*45:01; [6]): 8170 nM
- Kd (HLA-B*18:01 [1]; [6]): ≥ 22900 nM
- Kd (HLA-B*40:01 [2]; [6]): 6120 nM
- Kd (HLA-B*44:03; [6]): 7540 nM

Sequence: LLVWHTWQKQ
- Kd (HLA-A*32:01; [7]): ≥ 23300 nM

Sequence: LTLDIFYLF
- Kd (HLA-A*32:01; [5]): 4.4 nM

Sequence: MEAQFLYLY
- Kd (HLA-B*40:02; [8]): 2220 nM
- Kd (HLA-A*26:01; [8]): 1930 nM
- Kd (HLA-A*29:02; [8]): 5.98 nM
- Kd (HLA-B*44:02; [8]): 2.15 nM
- Kd (HLA-B*45:01; [8]): 12.2 nM
- Kd (HLA-A*01:01; [8]): 1570 nM
- Kd (HLA-A*30:02; [8]): 11.7 nM
- Kd (HLA-A*23:01): 16800 nM
- Kd (HLA-B*18:01 [1]; [8]): 0.292 nM
- Kd (HLA-B*40:01 [2]; [8]): 1850 nM
- Kd (HLA-B*44:03; [8]): 0.933 nM
- Kd (HLA-A*24:02): 9600 nM

Sequence: METDFLELAM
- Kd (HLA-B*40:02; [8]): 289 nM
- Kd (HLA-B*44:02; [8]): 24.3 nM
- Kd (HLA-B*45:01; [8]): 123 nM
- Kd (HLA-B*18:01 [1]; [8]): 37.6 nM
- Kd (HLA-B*40:01 [2]; [8]): 15.6 nM
- Kd (HLA-B*44:03; [8]): 10.9 nM

Sequence: MILFLKLLI
- Kd (HLA-A*32:01; [5]): 715 nM

Sequence: MLDDLTMGY
- Kd (HLA-A*26:01; [9]): 7290 nM
- Kd (HLA-A*29:02; [9]): 125 nM
- Kd (HLA-A*01:01; [9]): 1.12 nM
- Kd (HLA-A*30:02; [9]): 226 nM
- Kd (HLA-A*32:01; [9]): 2140 nM
- Kd (HLA-A*30:01): 12900 nM

Sequence: MSIMPVLAY
- Kd (HLA-B*15:01): 1.37 nM
- Kd (HLA-A*32:01; [5]): 99.7 nM

Sequence: PDTTYLGPL
- Kd (HLA-B*40:02; [6]): ≥ 77200 nM
- Kd (HLA-B*44:02; [6]): ≥ 77900 nM
- Kd (HLA-B*45:01; [6]): ≥ 21900 nM
- Kd (HLA-B*18:01 [1]; [6]): ≥ 75300 nM
- Kd (HLA-B*40:01 [2]; [6]): ≥ 76100 nM
- Kd (HLA-B*44:03; [6]): ≥ 78100 nM

Sequence: QELLIQQWI
- Kd (HLA-B*40:02; [8]): 61.7 nM
- Kd (HLA-B*44:02; [8]): 91.2 nM
- Kd (HLA-B*45:01; [8]): 316 nM
- Kd (HLA-B*18:01 [1]; [8]): 8660 nM
- Kd (HLA-B*40:01 [2]; [8]): 186 nM
- Kd (HLA-B*44:03; [8]): 13500 nM

Sequence: QVLMMRTTW
- Kd (HLA-A*32:01; source organism: Dengue virus 2 Jamaica/1409/1983): 73.5 nM

Sequence: REAVESCPLM
- Kd (HLA-B*40:02; [6]): 9.86 nM
- Kd (HLA-B*44:02; [6]): 525 nM
- Kd (HLA-B*45:01; [6]): 8140 nM
- Kd (HLA-B*18:01 [1]; [6]): 3040 nM
- Kd (HLA-B*40:01 [2]; [6]): 105 nM
- Kd (HLA-B*44:03; [6]): 2180 nM

Sequence: REGVFVFNG
- Kd (HLA-B*40:02; [8]): 222 nM
- Kd (HLA-B*44:02; [8]): 4770 nM
- Kd (HLA-B*45:01; [8]): 136 nM
- Kd (HLA-B*18:01 [1]; [8]): ≥ 39000 nM
- Kd (HLA-B*40:01 [2]; [8]): 1550 nM
- Kd (HLA-B*44:03; [8]): 298 nM

Sequence: RELNGGAVT
- Kd (HLA-B*40:02; [8]): 21.9 nM
- Kd (HLA-B*44:02; [8]): 9110 nM
- Kd (HLA-B*45:01; [8]): 43.9 nM
- Kd (HLA-B*18:01 [1]; [8]): ≥ 53300 nM
- Kd (HLA-B*40:01 [2]; [8]): 212 nM
- Kd (HLA-B*44:03; [8]): 7290 nM

Sequence: REVEEIIKY
- Kd (HLA-B*18:01 [3]): 25.3 nM
- Kd (HLA-B*40:01 [4]): 94.1 nM

Sequence: RLIVLFEVF
- Kd (HLA-B*15:01): 6.84 nM
- Kd (HLA-A*32:01; [5]): 12.6 nM

Sequence: SAVPVHWVPT
- Kd (HLA-A*32:01; [7]): 2000 nM

Sequence: SDEVARDLSL
- Kd (HLA-B*40:02; [8]): 10600 nM
- Kd (HLA-B*44:02; [8]): 5650 nM
- Kd (HLA-B*45:01; [8]): 262 nM
- Kd (HLA-B*18:01 [1]; [8]): ≥ 43200 nM
- Kd (HLA-B*40:01 [2]; [8]): 353 nM
- Kd (HLA-B*44:03; [8]): 3870 nM

Sequence: SKGWKNWQEV
- Kd (HLA-A*32:01; [10]): 19800 nM

Sequence: SKGWNDWQQV
- Kd (HLA-A*32:01; source organism: Dengue virus 1 Brazil/97-11/1997): ≥ 56200 nM

Sequence: TEQFINYCL
- Kd (HLA-B*40:02; [9]): 32.3 nM
- Kd (HLA-B*44:02; [9]): 100 nM
- Kd (HLA-B*45:01; [9]): 129 nM
- Kd (HLA-B*18:01 [1]; [9]): 399 nM
- Kd (HLA-B*40:01 [2]; [9]): 306 nM
- Kd (HLA-B*44:03; [9]): 416 nM

Sequence: WEILKFLITG
- Kd (HLA-B*40:02; [8]): 542 nM
- Kd (HLA-B*44:02; [8]): 8580 nM
- Kd (HLA-B*45:01; [8]): 1170 nM
- Kd (HLA-B*18:01 [1]; [8]): ≥ 41600 nM
- Kd (HLA-B*40:01 [2]; [8]): 19000 nM
- Kd (HLA-B*44:03; [8]): 2930 nM

Sequence: WNTGFDWITD
- Kd (HLA-A*32:01; [10]): 1150 nM

— the Immune Epitope Database (IEDB)
